# Reference: PMC3724804
# How the values were obtained:
# [1] = target: human cytoplasmic β-actin (human) (UniProt P60709)
# [2] = target: human cytoplasmic γ-actin (human) (UniProt P63261)
# [3] = target: skeletal muscle α-actin (rabbit) (UniProt P68135)
# [4] = target: human cytoplasmic β-actin (human) (UniProt P60709); remark: listed apart in the source
# [5] = target: human cytoplasmic γ-actin (human) (UniProt P63261); remark: listed apart in the source
# [6] = target: skeletal muscle α-actin (rabbit) (UniProt P68135); remark: listed apart in the source
# [7] = target: human cytoplasmic γ-actin (human) (UniProt P63261); remark: listed apart in the source
Substance,"K (app,actin): F-actin concentration for half-maximal activation of steady-state ATPase (NADH-coupled assay, 25°C) [1] [µM]",kcat of actin-activated steady-state ATPase [1] [s⁻¹],"K (app,actin): F-actin concentration for half-maximal activation of steady-state ATPase (NADH-coupled assay, 25°C) [2] [µM]",kcat of actin-activated steady-state ATPase [2] [s⁻¹],"K (app,actin): F-actin concentration for half-maximal activation of steady-state ATPase (NADH-coupled assay, 25°C) [3] [µM]",kcat of actin-activated steady-state ATPase [3] [s⁻¹],"Motility rate: sliding velocity of tropomyosin-decorated F-actin in the in vitro motility assay, 30°C [4] [nm/s]","Motility rate: sliding velocity of tropomyosin-decorated F-actin in the in vitro motility assay, 30°C [5] [nm/s]","Motility rate: sliding velocity of tropomyosin-decorated F-actin in the in vitro motility assay, 30°C [6] [nm/s]","ATP turnover in the flash photolysis experiment (5 µM F-actin), relative to α-actin [7] [fold]",kcat of actin-activated steady-state ATPase (activity in the presence of 100 µM F-actin) [1] [s⁻¹],kcat of actin-activated steady-state ATPase (activity in the presence of 100 µM F-actin) [2] [s⁻¹],kcat of actin-activated steady-state ATPase (activity in the presence of 100 µM F-actin) [3] [s⁻¹]
human myosin-7A motor domain construct (amino acids 1–747) fused with the artificial lever arm and EYFP (from UniProt Q13402 1-747) (domain or fragment),12.3,0.53,11.3,0.75,12.3,0.35,–,–,–,–,–,–,–
human nonmuscle myosin-2A motor domain (residues 1–775) fused with two Dictyostelium discoideum α-actinin repeats (from UniProt P35579 1-775) (domain or fragment),94.6,0.81,88,0.77,80.2,0.18,84.2,94.6,76.3,–,–,–,–
human nonmuscle myosin-2B motor domain (residues 1–782) fused with two Dictyostelium discoideum α-actinin repeats (from UniProt P35580 1-782) (domain or fragment),95.1,0.67,86.9,0.63,82,0.15,35.2,32.7,30.1,3,–,–,–
human nonmuscle myosin-2C1 splice variant motor domain (residues 1–807) fused with two Dictyostelium discoideum α-actinin repeats (domain or fragment),> 100,–,> 100,–,> 100,–,60.9,61.2,51.7,–,0.53,0.36,0.17
